From US20200172626A1 (EUTILEX, published 2020)
Positions count from the first letter of the chain named. Blank lines part the entries; values can stand above or below the binder they belong to.

Tests used:
[1] = target: T1, human 4-1BB expressed on cells (human, UniProt Q07011 24-255); assay: FACS on anti-CD3-activated human CD8+ T cells, antibody at 25 ng/ml
T1 construct: also called 4-1BB expressed by Jurkat 8-1 cells
Procedure: CD8⁺ T cells were isolated from human PBMCs and activated with 1 μg/ml anti-CD3 antibody for 2 day. The ability of exemplary humanized anti-human 4-1BB antibodies (94K, 94 KV, 94KVT and EU101) described in Example 1 to detect a 4-1BB on the surface of activated […] T cells was assessed relative to an exemplary commercially available anti-4-1BB antibody (4-1BB-PE). Also shown is detection with a BBK-4 a murine anti-human 4-1BB antibody and a 94G1 reference humanized antibody. Treatment with 4-1BB antibodies was at a concentration of 25 ng/ml.
Exemplary antibodies were detected with an anti-mIgG-Dylight488 or anti-hIgG-Dylight488 as appropriate, and analyzed by FACS.

[2] = target: T1, human 4-1BB expressed on cells; assay: cell-based or functional assay
[3] = target: T2, human 4-1BB antigen (H4-1BB) (human, UniProt Q07011 24-186, limits assumed); assay: ELISA of Fab in E. coli supernatant, binding divided by expression level; data not shown
Procedure: ELISA was performed the following day on a supernatant obtained by centrifugation at 12,000 rpm for 10 minutes at 4° C.
A Fab antibody prepared by substituting the constant heavy chain of pCOM-Fab94G1-L with the heavy chain of the backbone 94G1 on the improved 94G1 light chain was called 94/w. Thus, a 94/w variant includes an improved 94G1 light chain in which the 6th amino acid of LCDR3 is substituted with tryptophan (W) ([…]—SEQ ID NO: 4) and a 94G1 heavy chain. IPTG-induced expression in E. coli and ELISA of a 94/w Fab was used to determine binding affinity as described above. Using this method, it was determined that a 94/w Fab antibody has a binding activity 3.5 times higher than that of 94G1 (Fab antibody) (data not shown).

[4] = target: T2, human 4-1BB antigen (H4-1BB); assay: SPR (Biacore 3000, CM5 chip), antibody captured on immobilized anti-human IgG, human 4-1BB antigen (H4-1BB) flowed over
Source text: In vitro binding affinity of exemplary engineered antibody EU101 as described in Example 1, along with that of a reference 94G1 humanized antibody were each determined by Biacore analysis. Anti-human IgG was immobilized on a CM5 chip, and coupled to the Fab antibodies prepared above by flowing over the chip, and ultimately reacted with a human 4-1BB antigen (H4-1BB) to measure the binding activity between the antibody and the antigen (Biacore3000, sensor chip CM5). Ka (1/Ms) and Kd (1/s) values represent how fast an antibody associates with and dissociates from an antigen, respectively. A dissociation constant (KD) is obtain by dividing Kd by Ka (Kd/Ka=[…]).

[5] = target: T3, GST-4-1BB ECD fragment R1.1 fusion polypeptide (human, UniProt Q07011 21-65); assay: western blot on E. coli whole cell extracts (FIG. 2B)
T3 construct: not shown: GST carrier at the N end (pGEX-6T, 27 kDa) and the vector-derived junction residues
T3 chain: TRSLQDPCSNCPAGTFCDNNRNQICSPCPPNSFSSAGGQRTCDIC
Procedure: (§1) FIG. 2A depicts an SDS-PAGE gel of whole cell extracts from cells expressing 4-1BB ECD fusion constructs. Fusion constructs as described above in FIG. 2A were expressed in E. coli BL21 cells induced with 1 mM IPTG, and whole cell extracts resolved by 12% SDS-PAGE. As shown, all fusion constructs (ECD, R1, R1.1, R1.2, R1.3, R1.4, R1.5, and R1.6) have robust protein expression. FIG. 2B depicts a western blot showing binding of an exemplary humanized anti-4-1BB antibody to full length 4-1BB ECD fusion polypeptide, and R1.1, R1.2, R1.3, and R1.6 fusion polypeptides, but not to the R1.4 or R1.5 fusion polypeptides. Immunoblots were performed with an exemplary anti-human 4-1BB antibody. Molecular size markers are indicated in kDa on the left.
(§2) SDS-PAGE was transferred to a nitrocellulose membrane and immunoblotting was performed using an exemplary anti-human 4-1BB antibody, EU101. […] It was also confirmed that a sequence including amino acids 35 to 50 of the 4-1BB extracellular domain is […] for binding an exemplary humanized antibody described herein (FIG. 2B).

[6] = target: T4, GST-4-1BB ECD fragment R1.3 fusion polypeptide (human, UniProt Q07011 31-75); assay: as above
T4 construct: not shown: GST carrier at the N end (pGEX-6T, 27 kDa) and the vector-derived junction residues
T4 chain: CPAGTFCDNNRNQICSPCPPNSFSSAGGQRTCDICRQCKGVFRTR
Procedure: as §1, §2

[7] = target: T5, GST-4-1BB ECD fragment R1.6 fusion polypeptide (human, N-terminal GST fusion, not written); assay: as above
T5 construct: not shown: GST carrier at the N end (27 kDa, pGEX-6T) and the vector-derived residues at the BamHI/XhoI junctions
T5 chain: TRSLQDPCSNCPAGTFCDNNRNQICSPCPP
Procedure: as §1, §2

[8] = target: T6, GST-4-1BB ECD fragment R1.2 fusion polypeptide (human); assay: as above
T6 construct: not shown: GST carrier at the N end (pGEX-6T, 27 kDa) and the vector-derived junction residues
T6 chain: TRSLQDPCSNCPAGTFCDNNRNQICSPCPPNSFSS
Procedure: as §1, §2

[9] = target: T7, GST-4-1BB ECD fragment R2 fusion polypeptide (human, UniProt Q07011 76-130); assay: western blot on GST fusion polypeptides
T7 construct: not shown: GST carrier at the N end (pGEX-6T, 27 kDa) and the vector-derived junction residues
Procedure: Purified protein samples were obtained from transformed bacterial cells by a lysis buffer (e.g., 10 mM Tris-HCl—pH 7.4, 50 mM NaCl, 5 mM EDTA, 30 mM NaF, 0.1 mM Na3VO4, 1% Triton X-100, 0.5% Nonidet P-40, 1 mM PMSF, and protease inhibitor mixture). Approximately 20 μg of each fusion polypeptide sample was diluted in a 4×SDS sample buffer, subjected to electrophoresis on SDS-PAGE gels, and then transferred to nitrocellulose membranes (Millipore, Bedford, Mass.). On the cellulose membranes, anti-human 4-1BB mAb was reacted with anti-mouse IgG horseradish […] (HRP). Binding antibodies were recognized by enhanced chemiluminescence (ECL) (Amersham Pharmacia Biotech, Little Chalfont, UK).
As described above and shown in FIG. 1B, when each of three non-overlapping H4-1BB ECD fragment-GST fusion polypeptides, R1, R2, and R3, were treated with GST-binding, respectively. It was determined that an exemplary humanized anti-4-1BB antibody encompassed by the present disclosure (EU101) binds to an N-terminal fragment construct (R1) fusion construct of approximately 32 kDa (amino acids 1 to 55 of 4-1BB) by western blotting.

[10] = target: T8, GST-4-1BB ECD fragment R1.4 fusion polypeptide (human); assay: western blot on E. coli whole cell extracts with GST fusion polypeptides
T8 construct: not shown: GST carrier at the N end (pGEX-6T, 27 kDa) and the vector-derived junction residues
T8 chain: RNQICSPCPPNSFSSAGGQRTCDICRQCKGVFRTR
Procedure: as §1, §2

T1 sequence (Q07011 24-255 limits assumed): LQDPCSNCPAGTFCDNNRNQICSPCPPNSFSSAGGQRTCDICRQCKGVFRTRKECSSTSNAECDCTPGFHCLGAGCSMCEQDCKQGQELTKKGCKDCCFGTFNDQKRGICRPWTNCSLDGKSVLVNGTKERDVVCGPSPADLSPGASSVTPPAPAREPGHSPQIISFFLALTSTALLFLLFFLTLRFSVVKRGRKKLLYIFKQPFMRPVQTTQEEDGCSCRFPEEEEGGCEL

B1: 94KVT (full length 94KVT/w antibody) (antibody, human IgG1)
heavy: not shown
VL: DIVMTQSPAFLSVTPGEKVTITCRASQTISDYLHWYQQKPDQAPKLLIKYASQSISGIPSRFSGSGSGTDFTFTISSLEAEDAATYYCQDGHSWPPTFGQGTKLEIK
notes: Full length IgG1
percent of CD8+ T cells on which 4-1BB was detected [1]: 25.3%
IFNgamma secretion by anti-CD3-treated CD8+ T cells, 1.0 ug/ml antibody, day 5, against the control group [2]: 13 fold

B2: 94/w Fab antibody (Fab, V domains shown)
VH: QVQLQQSGAEVKKPGASVKLSCKASGYTFSSYWMHWVRQAPGQGLEWIGEINPGNGHTNYNEKFKSRATMTRDTSTSTAYMELSSLRSEDSAVYYCARSFTTARAFAYWGQGTLVTVSS
VL: B1 VL
notes: Fab expressed in E. coli TG1 from a pComb3H-derived vector and tested as culture supernatant; also called 941w
binding activity as fold of 94G1 (Fab antibody) [3]: 3.5 fold

Now from value to binder:

percent of CD8+ T cells on which 4-1BB was detected [1]: 17.9%
Kd [4]: 0.602 nM
koff [4]: 0.000118 s⁻¹
B3: 94G1 reference humanized anti-human 4-1BB antibody (antibody, V domains shown)
VH: B2 VH
VL: B1 VL with W94F

percent of CD8+ T cells on which 4-1BB was detected [1]: 28.3%
binding result [5]: binds
binding result [6]: binds
binding result [7]: binds
binding result [8]: binds
binding result [9]: no binding
Kd [4]: 0.0636 nM
koff [4]: 1.8e-05 s⁻¹
IFNgamma secretion by anti-CD3-treated CD8+ T cells, 1.0 ug/ml antibody, day 5, against the control group [2]: 13 fold
binding result [10]: no binding
B4: EU101 (antibody, human IgG1, L234A L235A)
heavy: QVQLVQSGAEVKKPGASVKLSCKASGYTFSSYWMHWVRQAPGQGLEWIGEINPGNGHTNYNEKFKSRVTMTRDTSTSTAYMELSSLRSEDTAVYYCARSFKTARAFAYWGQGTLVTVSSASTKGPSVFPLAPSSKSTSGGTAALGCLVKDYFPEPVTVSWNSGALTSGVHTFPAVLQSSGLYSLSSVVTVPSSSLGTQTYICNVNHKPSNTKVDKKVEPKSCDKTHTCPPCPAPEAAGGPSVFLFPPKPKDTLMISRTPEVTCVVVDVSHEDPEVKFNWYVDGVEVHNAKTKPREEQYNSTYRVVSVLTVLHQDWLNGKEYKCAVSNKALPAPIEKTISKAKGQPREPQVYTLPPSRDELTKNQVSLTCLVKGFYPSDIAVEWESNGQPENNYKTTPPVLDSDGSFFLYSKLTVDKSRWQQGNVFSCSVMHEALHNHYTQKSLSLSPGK
VL: B1 VL
notes: Full length antibody with the 94KVT/w variable domains and a variant IgG1 constant domain; The light chain constant domain is not tied to EU101; also called exemplary humanized anti-4-1BB antibody; exemplary anti-human 4-1BB antibody (EU101)
